The assay has as its target T1, BAKΔTM (human, UniProt Q16611 1-186).
T1 chain: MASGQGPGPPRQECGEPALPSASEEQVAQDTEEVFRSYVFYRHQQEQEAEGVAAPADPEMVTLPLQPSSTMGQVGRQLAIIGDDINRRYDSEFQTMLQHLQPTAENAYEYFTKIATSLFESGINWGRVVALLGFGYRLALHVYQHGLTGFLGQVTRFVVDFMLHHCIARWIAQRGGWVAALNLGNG
As to the kind of experiment: SPR.

Where only a bound is given, the exact number is not on record here.

From PMC7335050 (2020) come the findings set out here.

Consider NLWAAQRYGRELRRMSDEFVDSFKK [BAD BH3 peptide], for which the dissociation constant Kd is > 10 µM.

As to MEGSDALALRLACIGDEMDVSLRAPR [BIK BH3 peptide], the Kd was > 10 µM.
